Data: patent publication US20200216522A1 (DENALI THERAPEUTICS, published 2020)
Where two headings read alike, the source gives them in different places.

What was measured:
Assay in all cases: SPR Biacore
[1] = biological target: T1, full-length human Tau (Tau441; 2N4R), recombinant (human, UniProt P10636 1-758)
T1 construct: made in E. coli, His6-Smt3 tag removed; biotinylated through amines for Octet and phage work; also called r-Tau; recombinant Tau

[2] = biological target: T1, full-length human Tau (Tau441; 2N4R), …; remark: listed apart in the source
Description: (§1) IgG was purified with protein A affinity chromatography. The affinity of each hulC7 IgG variant for r-Tau was determined by surface plasmon resonance using a Biacore™ T200 instrument. Biacore™ Series S CM5 sensor chips were immobilized with monoclonal mouse anti-human IgG (Fc) antibody (Human antibody capture kit from GE Healthcare). Serial 3-fold dilutions of each hulC7 variant were injected at a flow rate of […]. Each sample was analyzed with 3-minute association and 10-minute dissociation. After each injection, the chip was regenerated using 3 M MgCl₂. Binding response was corrected by subtracting the RU from a flow cell capturing an irrelevant IgG at similar density. A 1:1 Languir model of simultaneous fitting of kₒₙ and koff was used for kinetics analysis.

[3] = biological target: T1, full-length human Tau (Tau441; 2N4R), …; remark: listed apart in the source
Description: as §1
A further round of affinity maturation was performed by mutating certain amino acids in selected CDR-H1, CDR-L1, and CDR-L3 sequences from Table 9A, as well as the sequence of CDR-H2 (SEQ ID NO:23) of hulC7.v2. Sequence changes were identified in each CDR (Table 9B). Binding affinities were evaluated using Biacore™ (Table 10B).

[4] = biological target: T1, full-length human Tau (Tau441; 2N4R), …; remark: listed apart in the source

T1 sequence (P10636 other isoform, or with tags, fused parts or gaps limits assumed): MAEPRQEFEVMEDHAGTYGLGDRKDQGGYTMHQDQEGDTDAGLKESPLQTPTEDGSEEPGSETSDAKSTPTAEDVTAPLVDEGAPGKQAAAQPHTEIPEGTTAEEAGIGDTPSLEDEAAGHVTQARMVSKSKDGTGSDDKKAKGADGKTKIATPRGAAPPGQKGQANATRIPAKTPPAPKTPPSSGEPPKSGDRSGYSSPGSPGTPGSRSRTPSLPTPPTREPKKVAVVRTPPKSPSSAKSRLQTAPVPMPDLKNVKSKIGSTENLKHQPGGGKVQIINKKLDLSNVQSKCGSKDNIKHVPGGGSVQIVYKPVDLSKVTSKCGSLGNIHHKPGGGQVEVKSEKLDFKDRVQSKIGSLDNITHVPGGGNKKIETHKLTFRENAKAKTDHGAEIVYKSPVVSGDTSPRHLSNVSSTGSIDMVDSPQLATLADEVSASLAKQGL

Kd [1] | koff [1] | kon [1] | Kd [2] | koff [2] | kon [2] | Kd [3] | koff [3] | kon [3] | Kd [4] | fold weaker binding than chimeric 1C7 [4] | Binder
0.069 nM | 0.000113 s⁻¹ | 1.64e+06 M⁻¹ s⁻¹ | – | – | – | – | – | – | – | – | Clone with L1_3 and H1_1 (antibody, V domains shown, IgG based on hu1C7.v2) VH: EVQLLESGGGLVQPGGSLRLSCAASGFKFSRVGVSWVRQAPGKGLEWVASISGDGGSYIHYADSVKGRFTISRDNSKNTLYLQMNSLRAEDTAVYYCARLPYWGQGTLVTVSS VL: DIVMTQSPDSLAVSLGERATINCKSSQSLHRSGTQKDYLVWYQQKPGQPPKLLIYWASTRESGVPDRFSGSGSGTDFTLTISSLQAEDVAVYYCQQYNSYPLTFGQGTKVEIK
0.092 nM | 0.000144 s⁻¹ | 1.56e+06 M⁻¹ s⁻¹ | – | – | – | 0.478 nM | 0.000132 s⁻¹ | 276000 M⁻¹ s⁻¹ | – | – | Clone with H1_2 (antibody, V domains shown, IgG based on hu1C7.v2) VH: EVQLLESGGGLVQPGGSLRLSCAASGFTFSRVGTSWVRQAPGKGLEWVASISGDGGSYIHYADSVKGRFTISRDNSKNTLYLQMNSLRAEDTAVYYCARLPYWGQGTLVTVSS VL: DIVMTQSPDSLAVSLGERATINCKSSQSLLNSGNQKNYLTWYQQKPGQPPKLLIYWASTRESGVPDRFSGSGSGTDFTLTISSLQAEDVAVYYCQQYNSYPLTFGQGTKVEIKR
0.192 nM | 0.000297 s⁻¹ | 1.54e+06 M⁻¹ s⁻¹ | – | – | – | – | – | – | – | – | Clone with L1_1 (antibody, V domains shown) VH: EVQLLESGGGLVQPGGSLRLSCAASGFTFSSYGMSWVRQAPGKGLEWVASISGDGGSYIHYADSVKGRFTISRDNSKNTLYLQMNSLRAEDTAVYYCARLPYWGQGTLVTVSS VL: DIVMTQSPDSLAVSLGERATINCKSSHSLYSSRRHKHYLAWYQQKPGQPPKLLIYWASTRESGVPDRFSGSGSGTDFTLTISSLQAEDVAVYYCQQYNSYPLTFGQGTKVEIKR
– | – | – | – | – | – | – | – | – | ~1.6 nM | ~2 fold | hu1C7.v1 (antibody, V domains shown) VH: EVQLLESGGGLVQPGGSLRLSCAASGFTFSSYGMSWVRQAPGKGLEWVSSISGDGGSYIHYADSVKGRFTISRDNSKNTLYLQMNSLRAEDTAVYYCARLPYWGQGTLVTVSS VL: DIVMTQSPDSLAVSLGERATINCKSSQSLLNSGNQKNYLTWYQQKPGQPPKLLIYWASTRESGVPDRFSGSGSGTDFTLTISSLQAEDVAVYYCQQYNSYPLTFGQGTKVEIKR
– | – | – | 1.8 nM | 0.0011 s⁻¹ | 660000 M⁻¹ s⁻¹ | – | – | – | ~1.6 nM | ~2 fold | hu1C7.v4 (S49A, S75A) (antibody, V domains shown) VH: EVQLLESGGGLVQPGGSLRLSCAASGFTFSSYGMSWVRQAPGKGLEWVASISGDGGSYIHYADSVKGRFTISRDNAKNTLYLQMNSLRAEDTAVYYCARLPYWGQGTLVTVSS VL: DIVMTQSPDSLAVSLGERATINCKSSQSLLNSGNQKNYLTWYQQKPGQPPKLLIYWASTRESGVPDRFSGSGSGTDFTLTISSLQAEDVAVYYCQQYNSYPLTFGQGTKVEIKR
– | – | – | – | – | – | – | – | – | 0.4 nM | – | anti-Tau antibody 1C7/3C.35.21 (antibody, human IgG1, kappa, L234A L235A, two 1C7 Fab arms; LALAPG; also called Tau^1C7/3C.35.21) heavy 1: EVKLVESGGGLVKPGGSLKLSCAASGFTFSSYGMSWVRQTPEKRLEWVASISGDGGSYIHYADSVKGRFTISRDSAKNTLYLQMSSLRSEDTALYYCARLPYWGQGTLVTVSAASTKGPSVFPLAPSSKSTSGGTAALGCLVKDYFPEPVTVSWNSGALTSGVHTFPAVLQSSGLYSLSSVVTVPSSSLGTQTYICNVNHKPSNTKVDKKVEPKSCDKTHTCPPCPAPEAAGGPSVFLFPPKPKDTLMISRTPEVTCVVVDVSHEDPEVKFNWYVDGVEVHNAKTKPREEQYNSTYRVVSVLTVLHQDWLNGKEYKCKVSNKALGAPIEKTISKAKGQPREPQVYTLPPSRDELTKNQVSLWCLVKGFYPSDIAVWWESYGTEWSSYKTTPPVLDSDGSFFLYSKLTVTKEEWQQGFVFSCSVMHEALHNHYTQKSLSLSPGK heavy 2: EVKLVESGGGLVKPGGSLKLSCAASGFTFSSYGMSWVRQTPEKRLEWVASISGDGGSYIHYADSVKGRFTISRDSAKNTLYLQMSSLRSEDTALYYCARLPYWGQGTLVTVSAASTKGPSVFPLAPSSKSTSGGTAALGCLVKDYFPEPVTVSWNSGALTSGVHTFPAVLQSSGLYSLSSVVTVPSSSLGTQTYICNVNHKPSNTKVDKKVEPKSCDKTHTCPPCPAPEAAGGPSVFLFPPKPKDTLMISRTPEVTCVVVDVSHEDPEVKFNWYVDGVEVHNAKTKPREEQYNSTYRVVSVLTVLHQDWLNGKEYKCKVSNKALGAPIEKTISKAKGQPREPQVYTLPPSRDELTKNQVSLSCAVKGFYPSDIAVEWESNGQPENNYKTTPPVLDSDGSFFLVSKLTVDKSRWQQGNVFSCSVMHEALHNHYTQKSLSLSPGK light: DIVMTQSPSSLTVTAGEKVTMSCKSSQSLLNSGNQKNYLTWYQQKPGQPPKLLIYWASTRESGVPDRFTGSGSGTDFTLTISNVQSEDLAEYFCQQYNSYPLTFGAGTKLELKRTVAAPSVFIFPPSDEQLKSGTASVVCLLNNFYPREAKVQWKVDNALQSGNSQESVTEQDSKDSTYSLSSTLTLSKADYEKHKVYACEVTHQGLSSPVTKSFNRGEC

Second part, the binder before the results:

Binder | Kd [1] | koff [1] | kon [1] | Kd [2] | koff [2] | kon [2] | Kd [3] | koff [3] | kon [3] | Kd [4] | fold weaker binding than chimeric 1C7 [4]
hu1C7.v2 (S49A) (antibody, V domains shown) VH: EVQLLESGGGLVQPGGSLRLSCAASGFTFSSYGMSWVRQAPGKGLEWVASISGDGGSYIHYADSVKGRFTISRDNSKNTLYLQMNSLRAEDTAVYYCARLPYWGQGTLVTVSS VL: DIVMTQSPDSLAVSLGERATINCKSSQSLLNSGNQKNYLTWYQQKPGQPPKLLIYWASTRESGVPDRFSGSGSGTDFTLTISSLQAEDVAVYYCQQYNSYPLTFGQGTKVEIKR | 1.5 nM | 0.0011 s⁻¹ | 760000 M⁻¹ s⁻¹ | 1.5 nM | 0.0011 s⁻¹ | 760000 M⁻¹ s⁻¹ | 1.45 nM | 0.000851 s⁻¹ | 585000 M⁻¹ s⁻¹ | ~1.6 nM | ~2 fold
Clone with L1_3 (antibody, V domains shown, IgG based on hu1C7.v2) VH: EVQLLESGGGLVQPGGSLRLSCAASGFTFSSYGMSWVRQAPGKGLEWVASISGDGGSYIHYADSVKGRFTISRDNSKNTLYLQMNSLRAEDTAVYYCARLPYWGQGTLVTVSS VL: DIVMTQSPDSLAVSLGERATINCKSSQSLHRSGTQKDYLVWYQQKPGQPPKLLIYWASTRESGVPDRFSGSGSGTDFTLTISSLQAEDVAVYYCQQYNSYPLTFGQGTKVEIK | 0.133 nM | 0.000286 s⁻¹ | 2.15e+06 M⁻¹ s⁻¹ | – | – | – | 0.109 nM | 0.000133 s⁻¹ | 1.22e+06 M⁻¹ s⁻¹ | – | –
hu1C7.v3 (S75A) (antibody, V domains shown) VH: EVQLLESGGGLVQPGGSLRLSCAASGFTFSSYGMSWVRQAPGKGLEWVSSISGDGGSYIHYADSVKGRFTISRDNAKNTLYLQMNSLRAEDTAVYYCARLPYWGQGTLVTVSS VL: DIVMTQSPDSLAVSLGERATINCKSSQSLLNSGNQKNYLTWYQQKPGQPPKLLIYWASTRESGVPDRFSGSGSGTDFTLTISSLQAEDVAVYYCQQYNSYPLTFGQGTKVEIKR | – | – | – | 1.7 nM | 0.0012 s⁻¹ | 730000 M⁻¹ s⁻¹ | – | – | – | ~1.6 nM | ~2 fold
Clone with L1_3 and H3_1 (antibody, V domains shown, IgG based on hu1C7.v2) VH: EVQLLESGGGLVQPGGSLRLSCAASGFTFSSYGMSWVRQAPGKGLEWVASISGDGGSYIHYADSVKGRFTISRDNSKNTLYLQMNSLRAEDTAVYYCAKLPFWGQGTLVTVSS VL: DIVMTQSPDSLAVSLGERATINCKSSQSLHRSGTQKDYLVWYQQKPGQPPKLLIYWASTRESGVPDRFSGSGSGTDFTLTISSLQAEDVAVYYCQQYNSYPLTFGQGTKVEIK | 0.062 nM | 0.000145 s⁻¹ | 2.36e+06 M⁻¹ s⁻¹ | – | – | – | – | – | – | – | –
Clone with L1_3 and H1_4 (antibody, V domains shown, IgG based on hu1C7.v2) VH: EVQLLESGGGLVQPGGSLRLSCAASGFRFSGPGMSWVRQAPGKGLEWVASISGDGGSYIHYADSVKGRFTISRDNSKNTLYLQMNSLRAEDTAVYYCARLPYWGQGTLVTVSS VL: DIVMTQSPDSLAVSLGERATINCKSSQSLHRSGTQKDYLVWYQQKPGQPPKLLIYWASTRESGVPDRFSGSGSGTDFTLTISSLQAEDVAVYYCQQYNSYPLTFGQGTKVEIK | 0.038 nM | 8.72e-05 s⁻¹ | 2.28e+06 M⁻¹ s⁻¹ | – | – | – | – | – | – | – | –
Clone with H1_4 (antibody, V domains shown, IgG based on hu1C7.v2) VH: EVQLLESGGGLVQPGGSLRLSCAASGFRFSGPGMSWVRQAPGKGLEWVASISGDGGSYIHYADSVKGRFTISRDNSKNTLYLQMNSLRAEDTAVYYCARLPYWGQGTLVTVSS VL: DIVMTQSPDSLAVSLGERATINCKSSQSLLNSGNQKNYLTWYQQKPGQPPKLLIYWASTRESGVPDRFSGSGSGTDFTLTISSLQAEDVAVYYCQQYNSYPLTFGQGTKVEIKR | 0.174 nM | 0.00023 s⁻¹ | 1.32e+06 M⁻¹ s⁻¹ | – | – | – | 0.333 nM | 0.000188 s⁻¹ | 564000 M⁻¹ s⁻¹ | – | –
